Test [1] has as its target T1, Retriever complex (VPS35L, VPS26C, VPS29) (human, UniProt Q7Z3J2 1-963; O14972 1-297; Q9UBQ0-2 1-186). In words: pull-down.
Test [2] addresses T1, Retriever complex (VPS35L, VPS26C, …). Briefly: pull-down. This is another data set of the same source.

Here are results for 3 molecules from paper PMC10980035 (bioRxiv, 2024).

As usually defined, the Kd is a measure of binding affinity in units of concentration. Low readings indicate tighter binding, high ones weaker binding.

T1 sequence (Q7Z3J2 whole entry, chain 1 of 2): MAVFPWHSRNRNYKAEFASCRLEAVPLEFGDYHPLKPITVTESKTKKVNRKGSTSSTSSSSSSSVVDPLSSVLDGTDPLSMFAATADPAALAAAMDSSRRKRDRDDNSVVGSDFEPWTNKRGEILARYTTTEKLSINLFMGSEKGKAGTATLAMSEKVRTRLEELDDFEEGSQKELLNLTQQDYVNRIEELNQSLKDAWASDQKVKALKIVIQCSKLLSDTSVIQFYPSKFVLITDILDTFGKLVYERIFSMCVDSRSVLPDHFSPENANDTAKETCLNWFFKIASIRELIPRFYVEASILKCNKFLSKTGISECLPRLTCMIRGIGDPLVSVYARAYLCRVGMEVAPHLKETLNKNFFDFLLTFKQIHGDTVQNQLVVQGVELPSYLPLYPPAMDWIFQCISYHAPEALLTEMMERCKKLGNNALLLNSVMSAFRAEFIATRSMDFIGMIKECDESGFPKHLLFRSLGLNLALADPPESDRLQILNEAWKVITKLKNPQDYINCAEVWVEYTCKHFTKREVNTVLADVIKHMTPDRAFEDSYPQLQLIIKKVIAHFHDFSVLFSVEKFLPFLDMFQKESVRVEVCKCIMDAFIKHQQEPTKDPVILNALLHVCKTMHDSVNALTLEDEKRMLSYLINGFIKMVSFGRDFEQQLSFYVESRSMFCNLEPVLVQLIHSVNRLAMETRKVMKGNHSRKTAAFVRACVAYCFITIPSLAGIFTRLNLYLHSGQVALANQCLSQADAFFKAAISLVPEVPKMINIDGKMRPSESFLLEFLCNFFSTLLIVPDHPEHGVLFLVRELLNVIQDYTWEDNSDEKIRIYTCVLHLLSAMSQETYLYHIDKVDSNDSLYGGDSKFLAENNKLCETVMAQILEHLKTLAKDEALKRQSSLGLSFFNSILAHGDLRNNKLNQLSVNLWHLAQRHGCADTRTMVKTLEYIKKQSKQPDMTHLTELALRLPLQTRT
T1 sequence (O14972 whole entry, chain 2 of 2): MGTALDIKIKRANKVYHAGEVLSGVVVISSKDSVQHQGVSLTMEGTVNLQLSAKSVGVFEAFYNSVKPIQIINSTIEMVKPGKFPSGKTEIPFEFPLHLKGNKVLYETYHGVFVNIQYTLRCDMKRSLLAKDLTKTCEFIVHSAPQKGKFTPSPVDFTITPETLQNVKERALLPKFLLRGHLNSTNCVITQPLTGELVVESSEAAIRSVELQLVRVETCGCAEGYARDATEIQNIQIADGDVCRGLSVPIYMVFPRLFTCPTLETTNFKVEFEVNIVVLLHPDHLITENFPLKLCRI

For ASASDVHGNFAFEGIGDEDL [GST-SNX17 CT (GST-tagged tail peptide, last 20 residues of SNX17)], the Kd in test [1] is about 110 nM. In the case of SKIKIAKDDCVFGNIKEEDL [GST-tagged CT acidic tail of SNX31 (last 20 amino acids)], the binding result in test [2] is “binds”. As to SVYLVNFRCCRSHDLCNEDL [GST-tagged CT acidic tail of PATE1 (last 20 amino acids)], the binding result in test [2] is “binds”.
